Measured values from article PMC9063451.

B1: NbBotI-17 (VHH)
VHH: QVQLQESGGGPVQAGGSLRLSCAASGFTDSNKNVHWFRQVPGKQCERVSTITSNGVTNYADSVKGRFTASRDNSKNTVYLQMNTLKTEDTAVYYCVSVYIWESIGPSQRCRGQGTQVTVSS
B2: NbBotI-01 (VHH)
VHH: QVQLQESGGGLVQPGGSLRLSCAASGFSFTVYYMSWVRQTPGKGLEWVSGINRDGSIIDYADSVKGRFTISRDNAENTLYLEMNSRKSEDTALNDCTPHVRGGRYRTRGQGTQVTVSS

Assays:
[1] = target: BotI-like toxin (Buthus occitanus tunetanus) (UniProt P01488)
[2] = target: BotI-like toxin (Buthus occitanus tunetanus) (UniProt P01488); test: SPR

Row | Binder | neutralisation of the toxin's lethality in Swiss mice (i.c.v. injection after 1 h preincubation at 37°C); 2 or 4 molar excess of Nb: 50% neutralisation at 6 and 7 LD50 (LD50 of toxin (50% neutralised)) [1] | Kd [2] | koff [2] | kon [2]
1 | B1 | 7 | 4.72 nM | 0.0308 s⁻¹ | 6.52e+06 M⁻¹ s⁻¹
2 | B2 |  | 0.0953 nM | 0.000464 s⁻¹ | 4.87e+06 M⁻¹ s⁻¹
